B1: tissue-type plasminogen activator (tPA) (protein)
chain: SYQVICRDEKTQMIYQQHQSWLRPVLRSNRVEYCWCNSGRAQCHSVPVKSCSEPRCFNGGTCQQALYFSDFVCQCPEGFAGKCCEIDTRATCYEDQGISYRGTWSTAESGAECTNWNSSALAQKPYSGRRPDAIRLGLGNHNYCRNPDRDSKPWCYVFKAGKYSSEFCSTPACSEGNSDCYFGNGSAYRGTHSLTESGASCLPWNSMILIGKVYTAQNPSAQALGLGKHNYCRNPDGDAKPWCHVLKNRRLTWEYCDVPSCSTCGLRQYSQPQFRIKGGLFADIASHPWQAAIFAKHRRSPGERFLCGGILISSCWILSAAHCFQERFPPHHLTVILGRTYRVVPGEEEQKFEVEKYIVHKEFDDDTYDNDIALLQLKSDSSRCAQESSVVRTVCLPPADLQLPDWTECELSGYGKHEALSPFYSERLKEAHVRLYPSSRCTSQHLLNRTVTDNMLCAGDTRSGGPQANLHDACQGDSGGPLVCLNDGRMTLVGIISWGLGCGQKDVPGVYTKVTNYLDWIRDNMRP
B2: factor XII purified from human plasma (protein)
chain: IPPWEAPKEHKYKAEEHTVVLTVTGEPCHFPFQYHRQLYHKCTHKGRPGPQPWCATTPNFDQDQRWGYCLEPKKVKDHCSKHSPCQKGGTCVNMPSGPHCLCPQHLTGNHCQKEKCFEPQLLRFFHKNEIWYRTEQAAVARCQCKGPDAHCQRLASQACRTNPCLHGGRCLEVEGHRLCHCPVGYTGAFCDVDTKASCYDGRGLSYRGLARTTLSGAPCQPWASEATYRNVTAEQARNWGLGGHAFCRNPDNDIRPWCFVLNRDRLSWEYCDLAQCQTPTQAAPPTPVSPRLHVPLMPAQPAPPKPQPTTRTPPQSQTPGALPAKREQPPSLTRNGPLSCGQRLRKSLSSMTRVVGGLVALRGAHPYIAALYWGHSFCAGSLIAPCWVLTAAHCLQDRPAPEDLTVVLGQERRNHSCEPCQTLAVRSYRLHEAFSPVSYQHDLALLRLQEDADGSCALLSPYVQPVCLPSGAARPSETTLCQVAGWGHQFEGAEEYASFLQEAQVPFLSLERCSAPDVHGSSILPGMLCAGFLEGGTDACQGDSGGPLVCEDQAAERRLTLQGIISWGSGCGDRNKPGVYTDVAYYLAWIREHTVS

Columns and labels:
[1] = target: T1, β2-glycoprotein I purified from fresh human plasma, P02749
T1 chain: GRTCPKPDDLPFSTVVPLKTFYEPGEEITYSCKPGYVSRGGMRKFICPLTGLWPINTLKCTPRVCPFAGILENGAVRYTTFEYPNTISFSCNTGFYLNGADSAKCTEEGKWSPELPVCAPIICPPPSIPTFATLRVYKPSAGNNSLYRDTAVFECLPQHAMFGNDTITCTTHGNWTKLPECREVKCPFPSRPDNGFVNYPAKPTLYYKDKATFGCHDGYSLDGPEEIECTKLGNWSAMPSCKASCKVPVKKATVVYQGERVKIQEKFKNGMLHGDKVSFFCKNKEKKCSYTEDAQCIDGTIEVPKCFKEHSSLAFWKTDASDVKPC

[2] = target: T2, recombinant human β2-glycoprotein I, P02749
T2 chain: T1 chain

[3] = target: native haemoglobin (Hb), P69905
[4] = target: T3, non-amyloid fragment FP10 of human fibrin α-chain (148-157)
T3 chain: KRLEVDIDIK

[5] = target: T4, human fibrin α-chain (148-160) amyloid fragment with Lys157Gly mutation (FP13), aggregated
T4 chain: KRLEVDIDIGIRS

[6] = target: human amyloid-β (Aβ) (1-40) Dutch type
[7] = target: T5, freshly dissolved FP13 K157G
T5 chain: KRLEVDIDIGIRS

[8] = target: glycated human haemoglobin (Hb-AGE), P69905
Chain of glycated human haemoglobin (Hb-AGE), P69905 (P69905 2-142, chain 1 of 2): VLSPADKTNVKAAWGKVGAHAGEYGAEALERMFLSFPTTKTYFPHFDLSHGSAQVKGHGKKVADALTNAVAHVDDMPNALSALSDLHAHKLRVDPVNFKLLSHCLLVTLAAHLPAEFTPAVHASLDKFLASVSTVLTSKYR
Chain of glycated human haemoglobin (Hb-AGE), P69905 (chain, as listed by the source, chain 2 of 2): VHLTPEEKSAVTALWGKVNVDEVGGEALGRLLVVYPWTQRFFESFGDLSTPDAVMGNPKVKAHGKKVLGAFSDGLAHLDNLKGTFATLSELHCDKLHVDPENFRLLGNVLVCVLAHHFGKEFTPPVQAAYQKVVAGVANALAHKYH

Chain of native haemoglobin (Hb), P69905 (P69905 2-142, chain 1 of 2): as the sequence (P69905 2-142, chain 1 of 2) above
Chain of native haemoglobin (Hb), P69905 (chain, as listed by the source, chain 2 of 2): as the sequence (chain, as listed by the source, chain 2 of 2) above

Row | Protein | tPA-mediated conversion of Plg to Pls (substrate S-2251) [1] | tPA-mediated conversion of Plg to Pls (substrate S-2251) [2] | factor XII auto-activation (substrate S-2222) [3] | activation of factor XII (conversion of Chromozym PK by kallikrein) [4] | activation of factor XII (conversion of Chromozym PK by kallikrein) (LAM12) | activation of factor XII (conversion of Chromozym PK by kallikrein) [5] | factor XII auto-activation (substrate S-2222) [5] | activation of factor XII (conversion of Chromozym PK by kallikrein) [6] | factor XII auto-activation (substrate S-2222) [6] | activation of factor XII (conversion of Chromozym PK by kallikrein) (TTR11) | activation of factor XII (conversion of Chromozym PK by kallikrein) (mIAPP) | factor XII auto-activation (substrate S-2222) [7] | factor XII auto-activation (substrate S-2222) [8]
1 | B1 | but not β2GPI purified from fresh plasma | Recombinant β2GPI, but not β2GPI purified from fresh plasma stimulate tPA-mediated conversion of Plg to Pls |  |  |  |  |  |  |  |  |  |  | 
2 | B2 |  |  | did not or hardly auto-activate factor XII (not shown) | non-amyloid controls FP10 and mIAPP do not activate factor XII | LAM12 and TTR11 stimulate factor XII activation, to a similar extent as kaolin | amyloid-like peptide aggregates of FP13 and Aβ stimulate the activation of factor XII | All three amyloid-like aggregates are able to induce factor XII auto-activation | amyloid-like peptide aggregates of FP13 and Aβ stimulate the activation of factor XII | All three amyloid-like aggregates are able to induce factor XII auto-activation; the potency of the Aβ(1-40) E22Q was somewhat lower | LAM12 and TTR11 stimulate factor XII activation, to a similar extent as kaolin | non-amyloid controls FP10 and mIAPP do not activate factor XII | did not or hardly auto-activate factor XII (not shown) | All three amyloid-like aggregates are able to induce factor XII auto-activation

From patent publication US20080207488
